In PMC8886374, “Click Chemistry and Multicomponent Reaction for Linker Diversification of Zinc Dipicolylamine-Based Drug Conjugates” (Frontiers in Chemistry, 2022):

Assays:
[1] = In vivo pharmacokinetic study, i.v., ICR mice; set-up: species or system mouse; settings: male ICR mice, i.v. 5 mg/kg; for AUCSN-38: SN-38 released from the dosed conjugate; for AUCSN-38 / AUC: 0–24 h; for AUC / clearance / Vd: mouse, in vivo, iv; for AUC: intact conjugate, read-out: AUCconjugate; for clearance / Vd: n = 3; for Vd: read-out: Vss
Protocol: Six-week-old ICR mice, purchased from Biolasco (Taiwan), were divided into groups of three and 100 µl of dosing solution was given intravenously. Through cardiac puncture, blood sample was collected from each sacrificed animal at time points at 0.003, 0.083, 0.25, 0.5, 1, 2, 4, 6, 8, and 24 h and stored on ice (0–4°C). Plasma was separated from the blood by centrifugation at 3,000 rpm for 15 min at 4°C in a Beckman Model Allegra 6R centrifuge. Analysis of the plasma samples were done by using liquid chromatography with tandem mass spectrometry (LC/MS/MS). A gradient system was used for the separation of analyte and IS. Ammonium acetate aqueous solution (10 mM) containing 0.1% formic acid was used as mobile phase A, while mobile phase B was acetonitrile. The gradient profile was as follows: 0.0–1.1 min, 50%B; 1.2–3.7 min, 55%B–90%B; 3.8–5.0 min, 90%B–50%B at the flow rate of 1.5 ml/min. The autosampler was programmed to inject 15 µl of sample every 5 min.
Next, to address the in vivo longevities and stabilities of U-4CR and/or “clicked” conjugates, in vivo systemic pharmacokinetic studies of conjugates 4–8 were carried out in the ICR mice. One single intravenous dose of 5 mg/kg of each conjugate was given to the mice. Plasma concentrations between the intact conjugate and the active payload (released SN-38 from the conjugate) in the circulation were measured and the pharmacokinetic parameters including clearance (CL), steady-state volume of distribution (Vss), and area under the plasma concentration curve (AUC0–24h) were determined (Table 2). Since SN-38 was the cytotoxic payload, the AUC ratio between the intact conjugate and SN-38 reflected the plasma stability, as these conjugates should be capable of uncaging the payload with higher protease activities in the tumor microenvironment. We envisioned that U-4CR could be a valuable synthetic strategy that unifies several advantageous features for bioactive SMDC in vivo. In addition to installing hydrophilic moiety to increase solubility and functional groups that modulate steady-state volume of distribution of the conjugate in vivo, a facile reactive handle for payload conjugation was also included. Indeed, we observed structure–property trends among the U-4CR-derived conjugates 5–8. Since these conjugates harnessed the same exo-BCN clicked SN-38 portion, the U-4CR products between the Zn-DPA targeting ligand and other components might contribute factors that could affect their in vivo stabilities (Table 2).

ICR mice = assay: In vivo maximum tolerated dose determination (acute toxicity); set-up: species or system mouse; settings: 5-day repeat dose, 1-week recovery monitoring
Protocol: The acute toxicity studies were determined in ICR male mice. In general, the studies were conducted using the dose of 10-50 mpk for dosing 5 consecutive days and the survival of the animals and their body weight were monitored for 14 days after first dosing.
However, acute toxicity is another important parameter to be monitored in the development of SMDC. […] Not limited by the components described within, the optimization of in vivo pharmacokinetic profiles of alternative ZnDPA-based SMDC, we anticipate that U-4CR with combinations of different components can lead to the construction of improved properties, such as decrease in the clearance rate and steady-state volume of distribution (Vss). Moreover, we envision employment of an imaging agent as one of the components can also furnish functional theranostic if desired.

[2] = system: MiaPaca-2 pancreatic cancer cells; settings: MiaPaca-2, MTS, 72 h
Protocol: MiaPaCa-2 cells, obtained from the Bioresource Collection and Research Center, Hsinchu, Taiwan, and the Detroit 551 cells were cultured in Dulbecco’s modified Eagle’s medium (DMEM). All cells were grown in a humidified CO2 incubator at 37°C. Cell viability was determined by the MTS assay. In brief, cells were cultured (2,500–3,000 cells/well) in flat bottomed 96-well plates for 24 h. Serial-diluted conjugates were added to the cell media and incubated for 72 h. Culture medium was removed after 72 h followed by the addition of 100 μl of MTS and PMS mixture solution. In a humidified incubator at 37°C with 5% CO2, cells were then incubated for another 1.5 h for viable cells to convert the tetrazolium salt into formazan. The conversion to formazan was monitored at the 490-nm absorbance by a BioTek PowerWave-X Absorbance Microplate Reader. In this MTS assay, the recorded data were normalized to DMSO-treated and background controls. Using GraphPad Prism version 4 software, the IC50 value was the amount of each conjugate that caused a 50% reduction in cell viability in comparison to DMSO-treated controls.

[3] = system: MiaPaca-2 human pancreatic tumor; assay: In vivo anti-tumor study, MiaPaca-2 xenograft in nude mice; settings: MiaPaca-2 tumor-bearing nude mice, i.v.; conjugate 4 10 mg/kg qd (5 + 5); CPT-11 40 mg/kg twice/week for 2 weeks
Text: The number of viable cells was counted with a hemocytometer with trypan blue staining under a light microscope on the day of tumor cell inoculation. Cells were suspended with phenol red free RPMI-1640 and Matrigel in a 1:1 ratio. MiaPaca-2 suspension cells (1 × 10^6 cells) were implanted subcutaneously into the left flank of the nude mice using a 1-ml syringe (needle 24G × 1 in., 0.55 × 25 mm; TERUMO). A digital caliper was used to measure tumor sizes and dimensions as the tumor volume in mm^3 was calculated with the formula: Volume = (length × width^2)/2. Tumor-bearing mice were randomized (n = 8 per group) and mean tumor volume was approximately 170 mm^3. […] Body weight and tumor size were measured twice weekly.

Compound: CCc1c2c(nc3ccc(OC(=O)c4ccc(CN(CCOCCOCCn5nnc6c5CC[C@H]5[C@@H](CC6)[C@@H]5COC(=O)N5CCC(C(=O)N(CCCCOc6cc(CN(Cc7ccccn7)Cc7ccccn7)cc(CN(Cc7ccccn7)Cc7ccccn7)c6)C6(C(=O)NC(C)(C)C)CCOCC6)CC5)C(=O)C5(c6ccc(Cl)cc6)CCCCC5)cc4)cc13)-c1cc3c(c(=O)n1C2)COC(=O)[C@]3(O)CC [conjugate 6]
- AUCSN-38 [1]: 927 ng·h/mL
- AUC [1]: 6460 ng·h/mL
- clearance [1]: 13.5 mL/min/kg
- Vd [1]: 4.1 L/kg

Compound: C/C=C/C(=O)N(CCCCOc1cc(CN(Cc2ccccn2)Cc2ccccn2)cc(CN(Cc2ccccn2)Cc2ccccn2)c1)C1(C(=O)NC(C)(C)C)CCN(C(=O)OC[C@H]2[C@@H]3CCc4nnn(CCOCCOCCN(Cc5ccc(C(=O)Oc6ccc7nc8c(c(CC)c7c6)Cn6c-8cc7c(c6=O)COC(=O)[C@]7(O)CC)cc5)C(=O)C5(c6ccc(Cl)cc6)CCCCC5)c4CC[C@@H]32)CC1 [conjugate 7]
- AUCSN-38 [1]: 1,309 ng/ml*h
- AUC [1]: 20700 ng·h/mL
- clearance [1]: 8.3 mL/min/kg
- Vd [1]: 3.6 L/kg

Compound: CCOP(=O)(CNC(=O)C1(N(CCCCOc2cc(CN(Cc3ccccn3)Cc3ccccn3)cc(CN(Cc3ccccn3)Cc3ccccn3)c2)C(=O)c2ccc(-c3ccc(O)cc3)cc2)CCN(C(=O)OC[C@H]2[C@@H]3CCc4nnn(CCOCCOCCN(Cc5ccc(C(=O)Oc6ccc7nc8c(c(CC)c7c6)Cn6c-8cc7c(c6=O)COC(=O)[C@]7(O)CC)cc5)C(=O)C5(c6ccc(Cl)cc6)CCCCC5)c4CC[C@@H]32)CC1)OCC [conjugate 8]
- AUCSN-38 [1]: 1,549 ng/ml*h
- difference in the AUC for the intact conjugate versus the released SN-38 within 24 h [1]: 40 fold
- AUC [1]: 62000 ng·h/mL
- clearance [1]: 1.3 mL/min/kg
- Vd [1]: 0.1 L/kg
- maximum tolerated dose (MTD) (ICR mice): 30 mpk

Compound: CCc1c2c(nc3ccc(OC(=O)c4ccc(CN(CCOCCOCCn5nnc6c5CC[C@H]5[C@@H](CC6)[C@@H]5COC(=O)N(C)CCCC(=O)N(CCCCOc5cc(CN(Cc6ccccn6)Cc6ccccn6)cc(CN(Cc6ccccn6)Cc6ccccn6)c5)C5(C(=O)NC(C)(C)C)CCOCC5)C(=O)C5(c6ccc(Cl)cc6)CCCCC5)cc4)cc13)-c1cc3c(c(=O)n1C2)COC(=O)[C@]3(O)CC [conjugate 5]
- AUCSN-38 [1]: 696 ng·h/mL
- AUC [1]: 1590 ng·h/mL
- clearance [1]: 50.2 mL/min/kg
- Vd [1]: 18.5 L/kg

Compound: CCc1c2c(nc3ccc(OC(=O)N4CCC(N5CCCCC5)CC4)cc13)-c1cc3c(c(=O)n1C2)COC(=O)[C@]3(O)CC [CPT-11, irinotecan]
- decrease in potency towards MiaPaca-2 (IC50 ratio) compared to SN-38 [2]: ~350 fold
- tumor shrinkage [3]: not observed
